Consider 17 molecules from patent US20190338026A1 (University of Texas, published 2019).

As a reminder, the EC50 (read off the curve) is the concentration at which the effect is half-maximal. A lower EC50 (read off the curve) goes with higher potency in that assay. Broadly, the EC50 is the concentration needed to bring the measured effect to its halfway point. Higher therefore signals a less potent agent.

Changes are numbered by the printed parent chain.

B1: LA-6 (antibody, V domains shown)
VH: EQSVEESGGDLVKPEGSLTLTCTASGFSFSSGYYMCWVRQAPGKGLEWIGCIHSSSGNIYYASWAKGRFTISKTSSTTVDLQLTSLTAADTATYFCARDSEVYGWNPNDLWGPGTLVTVSS
VL: ELDMTQTPASVSEPVGGTVTIKCQASQSISSYLAWYQQKPGQRPKLLIYGASNLASGVSSRFKGSRSGTQFTLTITDLECDDAATYYCQCSYYGNSYVGGAFGGGTEVVVK
notes: Rabbit monoclonal IgG; also called mAb LA-6
B2: LA-245 (antibody, V domains shown)
VH: QSLQESRGRLVTPGTPLTLTCTASGFSLSSYHMGWVRQAPGKGLEWIGYIHTNRNTWYANWAKGRFTISKTSSTTVNLRMTSPTTEDTATYFCARGSYGDYNFLFDVWGPGTLVTVSS
VL: ELVMTQTPASVSEPVGGTVTINCQASEDISIYLAWYQQKPGQPPKLLIYDASTLESGVPSRFSGSGSRTQFTLTISDLECADAATYYCQQYSTTDTNNLFGGGTEVEIK
notes: Rabbit monoclonal IgG
B3: LA-89 (antibody, V domains shown)
VH: QSVKESGGRLVTPGTPLTLTCTVSGFSLSSNAISWVRQAPGKGLEWIGYIYGDGRTFYASWAKGRFTISKTSTTVDLKMTSLTSEDTATYFCIKSLHLWGPGTLVTISS
VL: ELDMTQTASPVSAAVGGTVTINCQSSQSVYNKNQLFWYQQKPGQPPKLLIYDASTLASGVPSRYKGSGSGTQFTLTISGVQCDDAATYYCLGEYTGNIYTFGEGTEVVVK
notes: Rabbit monoclonal IgG; also called mAb LA-89
B4: LA-141 (antibody, V domains shown)
VH: QSLEESGGRLVKPDESLTLTCTVSGFSLSSNAMSWVRQAPGKGLEWIGYIYGDGRTFYANWAKGRITISRTSTTVDLKMTSLRTEDTATYFCVKSLILWGPGTLVTISS
VL: B3 VL with A8P, Q27H, K32A, F36Y, Y64F, T95S, T100V, V108E, V109I, K110N
notes: Rabbit monoclonal IgG
B5: LA-259-1 (antibody, V domains shown)
VH: QSVKESGGRLVTPGTPLTLTCTASGFSLYKYNIQWVRQAPGKGLEYIGASTYAGYTYYASWAKGRVTISRTSTTVDLKMTSPTTEDTATYFCARHIDGDYSGYALWGPGTLVTISS
VL: ELVLTQTPASVSAAVGGTVTIKCQASQSIGTWFAWYQQKPGQSPKLLIYGPSKLASGVPPRFKGSGSGTEFTLTISDLECADAATYYCQSTYFGVDYLGGTFGGGTEVVVK
notes: Rabbit monoclonal IgG
B6: LA-142-2 (antibody, V domains shown)
VH: B5 VH with Q1A, S2A, I114V
VL: ELVLTQTPASVSAAVGGTVTIKCQASQSIGTWFAWYQQKPGQSPKLLIYGASNLASGVSSRFKGIRSGTEYTLTISDLECADAATYYCQCSDVGNTYGAAFGGGTEVEIN
notes: Rabbit monoclonal IgG
B7: LA-142-1 (antibody, V domains shown)
VH: B5 VH with Q1A, S2A, I114V
VL: B5 VL with V109E, V110I
notes: Rabbit monoclonal IgG
B8: LA-145 (antibody, V domains shown)
VH: SSSVEESGGRLVTPGTPLTLTCTVSGFSLSSYVMGWVRQAPGKGLEWIGTISIRSNTYYASWAKGRFTISKTSTTVDLKITSPITEDTATYFCARGAGNVYYSDYYFSLWGPGTLVTISS
VL: ELVMTQPPASVSAAVGGTVTINCQASQNIYSNLAWYQQRPGQPPKLLIYKASTLASGVPSRFKGSGSGTDYTLTITDLECADAATYYCQTYYNMMDDGAAFGGGTEVEIK
notes: Rabbit monoclonal IgG
B9: LA-171 (antibody, V domains shown)
VH: EQSVEESGGRLVTPGGSLTLTCTVSGFSLSSYNMGWVRQAPGKGLEYIGWISLGGNTYYASWVNGRFTISKTSTTVELKISSPTTEDTATYFCARGAGSLYYGDYYFTLWGPGTLVTISS
VL: ELVLTQTPSSVSAAVGGTVTIKCQASQSIYSNLAWYQQKPGQPPKLLIYKASNLASGVPSRFKGSGSGTEYTLTISDLECADAATYYCQNYYGINDYGAAFGGGTEVVVK
notes: Rabbit monoclonal IgG
B10: LA-199 (antibody, V domains shown)
VH: EQSVEESGGRLVTPGTPLTLTCTASGFSLSSYAMIWVRQAPGEGLEWIGDIYAGGGATYYASWAKGRFTISKTSTTVDLKITSPTTEDTATYFCARAYGSGYDLWGPGTLVTVSS
VL: ELDLTQTPASVEVAVGGTVTIKCQASQSISSYLSWYQQKPGQPPKLLIYYASTMASGVPSRFSGSGSGTQFTLTISDLECADAATYYCQQGDSRSNVDNIFGGGTEVVVK
notes: Rabbit monoclonal IgG
B11: LA-82 (antibody, V domains shown)
VH: EQSLEESGGDLVKPGASLTLACTASGFSFSDGYYMCWVRQAPGKGLEWIGCIHSSSGSIYYASWAKGRFTISKTSSTMVTLQMSSLTAADTATYFCARDSESYGYNPCELWGPGTLVTISS
VL: ELVMTQTPASVSEAVGGTVTIKCQASQTISNYLAWYQQKPGQRPKLLIYAASSLASGVSSRFRGSRSGTEYTLTITDLECDDAATYYCQCTYYGTTYIGGAFGGGTEVEIK
notes: Rabbit monoclonal IgG; also called mAb LA-82
B12: LA-29 (antibody, V domains shown)
VH: SSSVEESGGGLVQPEGSLTLTCTASGFSFSSRYYMCWVRQAPGKGLEWIACIYNGDGSRYYASWAKGRFTISKTSSTTVTLQMTSLTAADTATYFCVRDRHTAFVDYGDDNLWGPGTLVTVSS
VL: ELDLTQTPASVSEPVGGTVTIKCQASQSIYSNLAWYQQKPGQPPKLLIYRASTLASGVPSRFKGSGAGTEFTLTISDLECADAATYYCQCTYDGISYVPSSFGGGTEVVVK
notes: Rabbit monoclonal IgG; also called mAb LA-29
B13: LA-60 (antibody, V domains shown)
VH: EQSLESGGGLVQPEGSLTLTCTASGFSFSNSYYMCWVRQAPGKGLEWIGCIYTGSSSGTYYASWAEGRFTISKTPSTTVTLQMTSLTAADTATYFCSRKLTNFNGAYLDLWGPGTLVTVSS
VL: ELVLTQTPASVEAAVGGTVTIKCQASQSIYSYLAWYQQKPGQPPKVLIYKASTLASGVPSRFKGSGSGTEFTLTISDLECADAATYYCQNNNGGSDNTFGGGTEVVVK
notes: Rabbit monoclonal IgG; also called mAb LA-60
B14: LA-61 (antibody, V domains shown)
VH: EQLMEESGGRLVTPGTPLTLTCTASGFDVNAYHMGWVRQAPGKGLEWIGYIYSGGTIFYANWAKGRFTLSRTSTTVDLKITSPTTEDTATYFCARGGYDNYNILYDLWGPGTLVTISS
VL: ELDMTQTPASVSEPVGGTVTIKCQASQSISVYLAWYQQKPGQPPKLLIYDASTLTSGVPSRFKGSGSGTEFTLTISDLECADAAAYYCQSYDGTPTAAFGGGTEVVVK
notes: Rabbit monoclonal IgG; also called mAb LA-61
B15: LA-111 (antibody, V domains shown)
VH: EQSVEESGGGLVAPGGSLTLTCTVSGFSLSNYHMGWVRQAPGKGLEWIGYIYTHGTTFYASWAKGRFTISKTSTTVDLKMTRLTTGDTATYFCARGGYADYNILYNLWGPGTLVTISS
VL: ELVLTQTPASVEAAVGGTVTINCQASQSISSYLAWYQQKPGQPPKLLIYDASDLASGVPSRFKGSRSGTEFTFTISDLECADAATYYCQTYDSSTTAAFGGGTEVEIK
notes: Rabbit monoclonal IgG
B16: LA-56 (antibody, V domains shown)
VH: SSSVEESGGRLVTPGTPLTLTCTVSGFSLSAYWVGWVRQAPGKGLEYIGFVDVDIYYASWARGRFTISKTSSTTVDLILTSPTMEDTATYFCVRMSYNAMDLWGPGTLVTISS
VL: ELDLTQTASSVSAAVGDTVTINCQSSESVYKDNFLSWYQQKPGQPPKLLIYRASTLASGVPSRFKGSGSGSQFTLTISDVVCDDAATYYCSGYRNSHDGLPFGGGTEVEIK
notes: Rabbit monoclonal IgG; also called mAb LA-56
B17: LA-258-1 (antibody, V domains shown)
VH: QSVKESGGDLVKPEGSLTLTCKASGFSFSNSYYMCWVRQAPGKGLEWIACIYTGSTSGTYYASWVNGRFTISKTPSTTVTLQMTSLTVADTATYFCSRKLTNFNGAYLDLWGPGTLVTISS
VL: ELVLTQTPASVEAAVGGTVTINCQASQSISNLLAWYQQKPGQRPKLLIYRASTLASGVSSRFKGSGSGTEYTLTISGVQCDDAATYYCQQGYTSNNVDNAFGGGTEVEIK
notes: Rabbit monoclonal IgG

One test has as its target T1, human LAIR1 extracellular domain (ECD) protein with 6 HIS tag at the C-terminus (human, UniProt Q6GTX8 22-165).
T1 construct: Produced recombinantly in HEK293 cells; the whole entry is named here; also called LAIR1 ECD; LAIR1-ECD
T1 chain: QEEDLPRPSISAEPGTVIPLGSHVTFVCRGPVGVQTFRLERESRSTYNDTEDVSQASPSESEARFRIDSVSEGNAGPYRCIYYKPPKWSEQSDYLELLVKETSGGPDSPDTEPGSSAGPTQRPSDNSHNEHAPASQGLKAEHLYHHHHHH
Put plainly: ELISA, LAIR1 ECD coated. As to the method: (§1) The inventors then used a concentration titration (0-10 μg/ml) by ELISA to determine the LAIR1 monoclonal antibody (mAbs) binding to human LAIR1 ECD. […] For FIGS. 2-39, X axis indicates the antibody concentrations and Y-axis is binding signals, measured as OD (450 nm). To perform the ELISA assay, LAIR1 ECD recombinant protein was coated on high absorption 96-well plates. Serial diluted (3-fold) LAIR1 mAb was added to the coated/blocked plates and detected using goat anti-rabbit F(ab′)2 conjugated HRP as secondary antibody. All assays were repeated 3 times and the titration curves were fitted using 4-parameter fitting curve using the GraphPad software for EC₅₀ estimation.
(§2) Serial dilutions of the LAIR1 monoclonal antibodies (IgGs or scFvs fragments), starting from […] and 3-fold titration down for 12 steps, were added to the 96-well plate for binding by incubating 45 minutes at 37° C. with a cover on the assay plate. Then the plates were washed with PBS containing Tween 20 (0.05% concentration) for 3 times and PBS one time. […] Detection was conducted by adding HRP substrate, TMB (ThermoFisher) for 10 minutes, and stopped by adding 50 μl/well of 2N H2504. The plates were read for absorbance at 450 nm using a plate reader (SpectraMax M4, Molecular Devices). Data were collected and graphed using a 4-parameter fitting curve with GrapPad Prism 7 software for EC₅₀ calculation.
(In general: ELISA stands for enzyme-linked immunosorbent assay.)
Consider B1, for which the concentration giving a half-maximal response (EC50 (read off the curve)) is roughly 10 ng/mL.
With B2, the “EC50 (read off the curve)” value is roughly 10 ng/mL.
Still for that read-out and setting: then B3, with roughly 10 ng/mL.
In the case of B4, the concentration giving a half-maximal response (EC50 (read off the curve)) was roughly 10 ng/mL.
As for B5, the “EC50 (read off the curve)” value was roughly 30 ng/mL.
Consider B6, for which the concentration giving a half-maximal response (EC50 (read off the curve)) was roughly 40 ng/mL.
For the molecule B7, the half-maximal effective concentration (EC50 (read off the curve)) is roughly 40 ng/mL.
With B8, the “EC50 (read off the curve)” value was roughly 10 ng/mL.
Consider B9, for which the “EC50 (read off the curve)” value was roughly 10 ng/mL.
Take B10: the “EC50 (read off the curve)” value is roughly 20 ng/mL.
Consider B11, for which the 50% effective concentration (EC50 (read off the curve)) was roughly 10 ng/mL.
Turning to B12, the “EC50 (read off the curve)” value is roughly 10 ng/mL.
For B13, the “EC50 (read off the curve)” value was roughly 10 ng/mL.
On to B14, for which the concentration for a half-maximal effect (EC50 (read off the curve)) was roughly 20 ng/mL.
B15: the half-maximal effective concentration (EC50 (read off the curve)) was roughly 10 ng/mL.
Same read-out and setting: then B16, with roughly 7 ng/mL.

Another test addresses T2, LAIR1 on LAIR1 reporter cells (human, UniProt Q6GTX8 22-165, limits assumed).
T2 chain: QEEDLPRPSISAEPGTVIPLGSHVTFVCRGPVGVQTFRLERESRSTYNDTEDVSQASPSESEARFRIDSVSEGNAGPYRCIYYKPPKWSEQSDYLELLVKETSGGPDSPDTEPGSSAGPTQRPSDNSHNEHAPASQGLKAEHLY
Put plainly: cell-based or functional assay.
As to B11, the “GFP+% of LAIR1 reporter cells, collagen I coated, soluble Ab” value was 1.1%.
For B13, the “GFP+% of LAIR1 reporter cells, collagen I coated, soluble Ab” value was 6.5%.

For another test, the target named is T1, human LAIR1 extracellular domain (ECD) …. Put plainly: ELISA, LAIR1 ECD coated, mAb titrated, anti-rabbit HRP. The method, then:
as §1, §2
B1: the EC50 was determined as 0.07 nM.
B2 displayed an EC50 of 0.09 nM.
The molecule B3 showed a half-maximal effective concentration (EC50) of 0.08 nM.
In turn, B4 had a half-maximal effective concentration (EC50) of 0.05 nM.
For the molecule B5, the midpoint of the response, the EC50, lay at 0.23 nM.
Consider B6, for which a half-maximal effect (EC50) was put at 0.28 nM.
Molecule B7 registered an EC50 of 0.25 nM. This EC50 and that of the molecule before are within 1.5-fold of each other.
Molecule B8 registered an EC50 of 0.08 nM.
The same measure, in the same setting: then B9, with 0.09 nM.
On the same count and under the same terms, then B10, with 0.16 nM; and B17, with 4.21 nM.
Still for that read-out and setting: the value for B11 was 0.1 nM; that for B12 was 0.02 nM; that for B13 was 0.1 nM.
In turn, B14 showed a concentration for a half-maximal effect (EC50) of 0.05 nM.
In turn, B15 gave an EC50 of 0.09 nM.
Molecule B16 registered an EC50 of 0.05 nM. Compared with the last molecule, the EC50 is about 1.8-fold lower.
